# Positions count from the first letter of the chain named. Numbers in names are those of the source.
# T1: DestiTA (Desulfomonile tiedjei, UniProt I4C827)
# T1 construct: gene Desti_3054; recombinant in E. coli Rosetta(DE3) pLysS, codon-optimized gene in modified pET-21d; N-terminal (His)6-TEV tag cut with TEV protease; homodimer about 68 kDa by gel filtration
# T1 sequence (I4C827 1-302): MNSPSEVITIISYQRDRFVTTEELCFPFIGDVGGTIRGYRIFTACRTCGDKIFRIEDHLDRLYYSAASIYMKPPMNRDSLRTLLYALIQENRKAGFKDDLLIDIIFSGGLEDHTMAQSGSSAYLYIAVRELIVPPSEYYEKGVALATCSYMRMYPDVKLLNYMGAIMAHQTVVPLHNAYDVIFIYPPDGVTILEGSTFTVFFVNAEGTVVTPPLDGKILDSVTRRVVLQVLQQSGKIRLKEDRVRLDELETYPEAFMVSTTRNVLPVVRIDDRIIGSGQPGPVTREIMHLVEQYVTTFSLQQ
# B1: DestiTA T43E variant (enzyme, Desulfomonile tiedjei DSM 6799, UniProt I4C827 1-302, looked up)
# chain: T1 sequence (I4C827 1-302) with T43E
# notes: DestiTA of Desulfomonile tiedjei DSM 6799, gene Desti_3054, Uniprot ID I4C827_DESTA, with T43E; Made by single-primer site-directed mutagenesis; also called the T43E variant; source: E. coli, purified as described for the WT DestiTA; not shown: His6, N-terminal, cleaved
# B2: DestiTA T199Q variant (enzyme, Desulfomonile tiedjei DSM 6799, UniProt I4C827 1-302, looked up)
# chain: T1 sequence (I4C827 1-302) with T199Q
# notes: DestiTA of Desulfomonile tiedjei DSM 6799, gene Desti_3054, Uniprot ID I4C827_DESTA, with T199Q; Made by single-primer site-directed mutagenesis; also called the T199Q variant; source: E. coli, purified as described for the WT DestiTA; not shown: His6, N-terminal, cleaved
# B3: DestiTA T199N variant (enzyme, Desulfomonile tiedjei DSM 6799, UniProt I4C827 1-302, looked up)
# chain: T1 sequence (I4C827 1-302) with T199N
# notes: DestiTA of Desulfomonile tiedjei DSM 6799, gene Desti_3054, Uniprot ID I4C827_DESTA, with T199N; Made by single-primer site-directed mutagenesis; also called the T199N variant; source: E. coli, purified as described for the WT DestiTA; not shown: His6, N-terminal, cleaved
# B4: D-amino acid transaminase from Desulfomonile tiedjei (DestiTA), wild type (enzyme, Desulfomonile tiedjei DSM 6799, UniProt I4C827 1-302, looked up)
# chain: T1 sequence (I4C827 1-302)
# notes: PLP-dependent fold type IV transaminase DestiTA of Desulfomonile tiedjei DSM 6799, gene Desti_3054, Uniprot ID I4C827_DESTA; recombinant DestiTA printed as 302 a.a., 34.2 kDa; codon-optimised synthetic gene in modified pET-21d; N-terminal (His)6-TEV-tag removed with TEV protease; also called WT DestiTA; WT; source: E. coli Rosetta(DE3) pLysS, purified (HisTrap HP, TEV cleavage, second HisTrap HP, …)
# Legend:
# DestiTA [1] = target: T2, DestiTA (Desulfomonile tiedjei, UniProt I4C827, T199N); experiment: thermal shift assay (ThermoFluor) on apoenzyme, quadratic fit; format: binding; conditions: 50 mM K-phosphate, pH 8.0; 2 µM apoenzyme incubated with 0.5–500 µM PLP 1 h at 25 °C; covalent (Schiff base to K158)
# T2 construct: gene Desti_3054; recombinant in E. coli Rosetta(DE3) pLysS, codon-optimized gene in modified pET-21d; N-terminal (His)6-TEV tag cut with TEV protease; homodimer about 68 kDa by gel filtration
# T2 sequence (I4C827 entry or part of it T199N): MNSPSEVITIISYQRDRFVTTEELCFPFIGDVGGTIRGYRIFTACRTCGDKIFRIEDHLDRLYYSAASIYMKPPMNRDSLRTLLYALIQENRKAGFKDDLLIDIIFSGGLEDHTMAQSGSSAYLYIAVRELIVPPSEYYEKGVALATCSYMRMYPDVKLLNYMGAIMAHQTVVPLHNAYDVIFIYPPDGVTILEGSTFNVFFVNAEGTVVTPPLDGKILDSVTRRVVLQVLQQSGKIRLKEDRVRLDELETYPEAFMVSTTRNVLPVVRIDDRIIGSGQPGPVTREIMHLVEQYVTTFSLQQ
# DestiTA [2] = target: T3, DestiTA (Desulfomonile tiedjei, UniProt I4C827, T199Q); experiment: as above; format: binding; conditions: 50 mM K-phosphate, pH 8.0; 2 µM apoenzyme incubated with 0.5–500 µM PLP 1 h at 25 °C; covalent (Schiff base to K158)
# T3 construct: gene Desti_3054; recombinant in E. coli Rosetta(DE3) pLysS, codon-optimized gene in modified pET-21d; N-terminal (His)6-TEV tag cut with TEV protease; homodimer about 68 kDa by gel filtration
# T3 sequence (I4C827 entry or part of it T199Q): as the sequence (I4C827 entry or part of it T199N) above, with N199Q counted along it
# DestiTA [3] = target: T1, DestiTA; experiment: as above; format: binding; conditions: 50 mM K-phosphate, pH 8.0; 2 µM apoenzyme incubated with 0.5–500 µM PLP 1 h at 25 °C; covalent (Schiff base to K158)
# purified protein [4] = substrate: C[C@@H](N)C(=O)O; experiment: purified protein; conditions: co-substrate α-ketoglutarate, 50 mM K-phosphate, 30 µM PLP
# purified protein [5] = substrate: O=C(O)CCC(=O)C(=O)O; experiment: purified protein; format: biochemical, Desulfomonile tiedjei; conditions: co-substrate D-alanine, 50 mM K-phosphate, 30 µM PLP
# [6] = target: the molecule itself; experiment: SEC; gel filtration of the purified enzyme; molecular weight approximately 68 kDa for the WT (subunit 34.2 kDa); self-association, homodimer
# purified protein [7] = substrate: C[C@@H](N)c1ccccc1; experiment: purified protein; format: biochemical, Desulfomonile tiedjei; conditions: co-substrate α-ketoglutarate, 50 mM Na-pyrophosphate, pH 9.0, 50 °C, 30 µM PLP
Molecule,Kd (DestiTA [1]) [µM],Kd (DestiTA [2]) [µM],Kd (DestiTA [3]) [µM],"Km (purified protein [4]; pH 6.5, 40 °C, pH 6.5, 40.0 °C) [µM]","kcat (purified protein [4]; pH 6.5, 40 °C, pH 6.5, 40.0 °C) [s⁻¹]","kcat/Km (purified protein [4]; pH 6.5, 40 °C, pH 6.5, 40.0 °C) [M⁻¹ s⁻¹]","Km (purified protein [5]; pH 6.5, 40 °C) [µM]","kcat (purified protein [5]; pH 6.5, 40 °C) [s⁻¹]","kcat/Km (purified protein [5]; pH 6.5, 40 °C) [M⁻¹ s⁻¹]",stoichiometry N [6],"Km (purified protein [4]; pH 8.0, 50 °C, pH 8.0, 50.0 °C) [µM]","kcat (purified protein [4]; pH 8.0, 50 °C, pH 8.0, 50.0 °C) [s⁻¹]","kcat/Km (purified protein [4]; pH 8.0, 50 °C, pH 8.0, 50.0 °C) [M⁻¹ s⁻¹]","Km (purified protein [5]; pH 8.0, 50 °C) [µM]","kcat (purified protein [5]; pH 8.0, 50 °C) [s⁻¹]","kcat/Km (purified protein [5]; pH 8.0, 50 °C) [M⁻¹ s⁻¹]",Km (purified protein [7]) [µM],kcat (purified protein [7]) [s⁻¹],kcat/Km (purified protein [7]) [M⁻¹ s⁻¹]
Cc1ncc(COP(=O)(O)O)c(C=O)c1O [PLP],33 ± 2,2.2 ± 0.4,11 ± 1,,,,,,,,,,,,,,,,
B1,,,,2900 ± 800,0.15,52,2800 ± 900,0.15 ± 0.01,54 ± 30,2,,,,,,,,,
B2,,,,,,,,,,2,50000 ± 6000,8.4,170,450 ± 70,8.4 ± 0.4,19000 ± 4000,,,
B3,,,,,,,,,,2,520 ± 70,5,10000 ± 2000,210 ± 30,5 ± 0.2,24000 ± 4000,,,
B4,,,,,,,,,,2,500 ± 100,5.8,11600 ± 3000,110 ± 10,5.8 ± 0.2,53000 ± 8000,17000 ± 2000,0.7 ± 0.1,70 ± 20

# Source: article PMC12429042, “Contribution of Second-Shell Residues to PLP-Dependent Transaminase Catalysis: A Case Study of D-Amino Acid Transaminase from Desulfomonile tiedjei” (International Journal of Molecular Sciences, 2025)
